Assay results: US20250076311A1 (Chugai, published 2025)
Where a chain is given by its changes, count along the chain named. Names and notes keep the numbering of the source.

Columns and labels:
[1] = biological target: T1, cynomolgus monkey FcγRIIIaS extracellular domain with C-terminal His-tag (cynomolgus monkey, UniProt Q8SPW2 21-206 at identity 1.00)); assay: SPR, antibody captured, FcγR analyte
T1 construct: also called cyno FcgRIIIaS; cynoFcγRIIIaS
T1 chain: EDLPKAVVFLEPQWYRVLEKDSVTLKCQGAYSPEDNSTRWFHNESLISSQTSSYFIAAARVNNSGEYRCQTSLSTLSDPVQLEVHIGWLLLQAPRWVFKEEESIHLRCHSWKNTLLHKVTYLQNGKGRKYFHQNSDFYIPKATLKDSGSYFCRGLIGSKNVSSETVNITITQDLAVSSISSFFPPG

[2] = biological target: T2, human FcγRIIaR extracellular domain with C-terminal His-tag (human, UniProt P12318 34-217); assay: SPR, antibody captured, FcγR analyte
T2 construct: also called human FcgRIIaR; FcγRIIa (type R)
T2 chain: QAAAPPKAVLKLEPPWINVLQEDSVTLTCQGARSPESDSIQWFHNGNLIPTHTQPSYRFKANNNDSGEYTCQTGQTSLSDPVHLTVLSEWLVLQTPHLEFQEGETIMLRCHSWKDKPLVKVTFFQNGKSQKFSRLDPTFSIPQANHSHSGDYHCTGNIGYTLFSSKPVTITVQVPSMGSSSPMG

[3] = biological target: T3, soluble mouse FcγRII, His-tagged (mouse, UniProt P08101 30-210, limits assumed); assay: SPR, mouse FcγRII captured via His-tag, antigen-antibody complex injected, pH 7.4, 25 C
T3 construct: Captured on the chip through an anti-His antibody
T3 sequence (looked up): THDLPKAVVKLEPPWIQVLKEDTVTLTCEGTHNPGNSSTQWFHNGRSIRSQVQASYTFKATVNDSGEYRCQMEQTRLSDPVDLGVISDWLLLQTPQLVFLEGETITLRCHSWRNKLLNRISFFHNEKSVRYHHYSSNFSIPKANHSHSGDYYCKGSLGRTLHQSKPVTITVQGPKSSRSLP
Procedure, shortened: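 Biacore T200; His-tagged soluble FcγRII captured on an anti-His antibody chip, then antibody–antigen complexes injected. Running buffer 20 mM ACES, 150 mM NaCl, 1.2 mM CaCl₂, 0.05% Tween 20, pH 7.4; regeneration with 10 mM glycine-HCl pH 1.5; all at 25° C.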

[4] = biological target: T4, human FcγRIIb constitutively expressed on MDCK cells (human, UniProt P31994 43-310); assay: cell-based or functional assay
T4 sequence (looked up): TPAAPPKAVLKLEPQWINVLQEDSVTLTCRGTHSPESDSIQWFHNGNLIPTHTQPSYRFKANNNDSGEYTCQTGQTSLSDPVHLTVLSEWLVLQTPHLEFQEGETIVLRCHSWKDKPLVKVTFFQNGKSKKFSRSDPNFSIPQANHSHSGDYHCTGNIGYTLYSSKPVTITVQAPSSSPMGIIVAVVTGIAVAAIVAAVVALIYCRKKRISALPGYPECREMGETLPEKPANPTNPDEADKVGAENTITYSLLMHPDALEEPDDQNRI

[5] = biological target: T1, cynomolgus monkey FcγRIIIaS …; assay: SPR, KD(SG1)/KD(variant)
[6] = biological target: T2, human FcγRIIaR extracellular domain …; assay: SPR, KD(SG1)/KD(variant)
[7] = biological target: T5, human FcγRIIIaV extracellular domain with C-terminal His-tag (human, UniProt P08637 17-208); assay: SPR, KD(SG1)/KD(variant)
T5 construct: also called human FcgRIIIaV
T5 sequence (P08637 17-208 F176V): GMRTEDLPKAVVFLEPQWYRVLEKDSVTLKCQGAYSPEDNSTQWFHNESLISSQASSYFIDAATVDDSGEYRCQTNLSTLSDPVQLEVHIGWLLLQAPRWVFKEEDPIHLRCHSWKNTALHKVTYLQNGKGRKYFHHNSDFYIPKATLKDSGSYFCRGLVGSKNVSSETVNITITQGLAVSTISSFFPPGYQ

[8] = biological target: T6, cynomolgus monkey FcγRIIb extracellular domain with C-terminal His-tag (cynomolgus monkey); assay: SPR, KD(SG1)/KD(variant)
T6 construct: also called cyno FcgRIIb; cynoFcγRIIb
T6 chain: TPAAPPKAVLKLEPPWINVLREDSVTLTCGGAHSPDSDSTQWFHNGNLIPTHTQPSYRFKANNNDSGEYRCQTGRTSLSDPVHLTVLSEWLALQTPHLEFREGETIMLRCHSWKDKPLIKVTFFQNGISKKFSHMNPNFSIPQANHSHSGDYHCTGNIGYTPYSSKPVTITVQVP

[9] = biological target: T7, cynomolgus monkey FcγRIIb extracellular domain with C-terminal His-tag (cynomolgus monkey); assay: SPR (Biacore), KD of SG1 divided by KD of variant
T7 construct: also called cyno FcgRIIb; cynoFcγRIIb
T7 chain: T6 chain

[10] = biological target: T8, human FcγRIIaR extracellular domain with C-terminal His-tag (human, UniProt P12318 34-217); assay: SPR (Biacore), KD of SG1 divided by KD of variant
T8 construct: also called human FcgRIIaR; FcγRIIa (type R)
T8 chain: T2 chain

[11] = biological target: T9, human FcγRIIIaV extracellular domain with C-terminal His-tag (human, UniProt P08637 17-208); assay: SPR (Biacore), KD of SG1 divided by KD of variant
T9 construct: also called human FcgRIIIaV
T9 sequence (P08637 17-208 F176V): as the sequence (P08637 17-208 F176V) above

[12] = biological target: T10, cynomolgus monkey FcγRIIIaS extracellular domain with C-terminal His-tag (cynomolgus monkey, UniProt Q8SPW2 21-206 at identity 1.00)); assay: SPR (Biacore), KD of SG1 divided by KD of variant
T10 construct: also called cyno FcgRIIIaS; cynoFcγRIIIaS
T10 chain: T1 chain

[13] = biological target: T11, human FcγRIIb extracellular domain with C-terminal His-tag (human, UniProt P31994 43-217); assay: SPR, KD(SG1)/KD(variant)
T11 construct: also called human FcgRIIb
T11 sequence: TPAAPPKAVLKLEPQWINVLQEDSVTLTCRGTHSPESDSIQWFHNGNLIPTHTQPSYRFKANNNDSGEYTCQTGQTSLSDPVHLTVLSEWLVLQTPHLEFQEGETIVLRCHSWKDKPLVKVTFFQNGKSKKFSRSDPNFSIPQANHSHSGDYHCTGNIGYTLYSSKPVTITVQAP

[14] = biological target: T12, cynomolgus monkey FcγRIIa2 extracellular domain with C-terminal His-tag (cynomolgus monkey); assay: SPR, KD(SG1)/KD(variant)
T12 construct: also called cyno FcgRIIa2; cynoFcγRIIa2
T12 chain: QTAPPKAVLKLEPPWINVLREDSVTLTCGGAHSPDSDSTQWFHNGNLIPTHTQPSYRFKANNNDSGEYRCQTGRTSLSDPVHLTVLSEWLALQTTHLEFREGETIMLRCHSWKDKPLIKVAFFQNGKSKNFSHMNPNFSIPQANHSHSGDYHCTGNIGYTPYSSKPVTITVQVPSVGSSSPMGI
Experimental: (§1) The kinetic analysis of interactions between these antibodies and FcγR was carried out using BIACORE® T200 or BIACORE® 4000 (GE Healthcare). HBS-EP+ (GE Healthcare) was used as the running buffer, and the measurement temperature was set to 25° C. […] After the measurement, the antibody captured on the chip was washed off by allowing reaction with 10 mM glycine-HCl, pH1.5 and 25 mM NaOH so that the chip was regenerated and used repeatedly. The sensorgrams obtained as measurement results were analyzed by the 1:1 Langmuir binding model using the BIACORE® Evaluation Software to calculate the binding rate constant ka (L/mol/s) and dissociation rate constant kd (1/s), and the dissociation constant KD (mol/L) was calculated from these values. […] Regarding such interactions, KD values were calculated using the following 1:1 binding model described in BIACORE® T100 Software Handbook BR1006-48 Edition AE.

[15] = biological target: T1, cynomolgus monkey FcγRIIIaS …; assay: SPR, KD(SG1)/KD(variant)
Experimental: as §1

[16] = biological target: T13, cynomolgus monkey FcγRIIa1 extracellular domain with C-terminal His-tag (cynomolgus monkey); assay: SPR, KD(SG1)/KD(variant)
T13 construct: also called cyno FcgRIIa1; cynoFcγRIIa1
T13 chain: T12 chain with T95P, A121T, K127I, S128A, N130K, N135D, Q142R
Experimental: as §1

[17] = biological target: T5, human FcγRIIIaV extracellular domain …; assay: SPR, KD(SG1)/KD(variant); remark: listed apart in the source
Experimental: as §1

B1: MS1032LO06-SG1 (antibody, human IgG1, kappa)
heavy: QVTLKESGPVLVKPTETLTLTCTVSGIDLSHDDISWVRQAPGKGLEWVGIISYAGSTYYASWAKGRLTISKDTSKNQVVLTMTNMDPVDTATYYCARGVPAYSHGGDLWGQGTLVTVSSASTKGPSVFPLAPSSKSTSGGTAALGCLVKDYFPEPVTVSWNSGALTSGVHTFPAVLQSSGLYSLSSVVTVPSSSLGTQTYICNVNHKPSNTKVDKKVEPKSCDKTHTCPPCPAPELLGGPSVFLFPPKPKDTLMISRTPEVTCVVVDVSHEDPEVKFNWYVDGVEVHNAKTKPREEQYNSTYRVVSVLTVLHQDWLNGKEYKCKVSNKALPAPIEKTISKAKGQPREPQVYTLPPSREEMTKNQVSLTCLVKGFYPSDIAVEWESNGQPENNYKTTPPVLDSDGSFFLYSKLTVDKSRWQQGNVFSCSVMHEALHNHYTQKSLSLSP
light: DIVMTQSPATLSLSPGERATLSCTSSQSVYHANWLSWFQQKPGQPPKLLIYWASTLAYGVPSRFSGSGSGTDFTLTISSLQPEDAATYYCAGGYGGGRYAFGQGTKVEIKRTVAAPSVFIFPPSDEQLKSGTASVVCLLNNFYPREAKVQWKVDNALQSGNSQESVTEQDSKDSTYSLSSTLTLSKADYEKHKVYACEVTHQGLSSPVTKSFNRGEC
notes: also called M103205H795-SG1; copies: 2 + 2
Kd [1]: 0.26 µM | Kd [2]: 10 µM | biacore IC binding (relative, SG1 = 1.00) [3]: 1 relative to SG1 | celluar uptake (labelled human latent myostatin taken up as antigen-antibody complex) [4]: 1 relative to SG1 = 1.00

B2: M103205H795-MY534/M103202L889-SK1 (antibody, human IgG1, kappa, name in EU numbering)
heavy: QVTLKESGPVLVKPTETLTLTCTVSGIDLSHDDISWVRQAPGKGLEWVGIISYAGSTYYASWAKGRLTISKDTSKNQVVLTMTNMDPVDTATYYCARGVPAYSHGGDLWGQGTLVTVSSASTKGPSVFPLAPSSKSTSGGTAALGCLVKDYFPEPVTVSWNSGALTSGVHTFPAVLQSSGLYSLSSVVTVPSSSLGTQTYICNVNHKPSNTKVDKKVEPKSCDKTHTCPPCPAPELLTGPVVFLFPPKPKDTLMISRTPEVTCVVVDVSDEDPEVKFNWYVDGVEVHNAKTKPREELYNSTYRVVSVLTVLHQDWLNGKEYKCKVSNKALPKPIEKTISKAKGQPREPQVYTLPPSREEMTKNQVSLTCLVKGFYPSDIAVEWESNGQPENNYKTTPPVLDSDGSFFLYSKLTVDKSRWQQGNVFSCSVMHEALHNHYTQKSLSLSP
light: B1 light
notes: copies: 2 + 2
KD fold (SG1 = 1) [5]: 0.22 fold | KD fold (SG1 = 1) [6]: 5.8 fold | KD fold (SG1 = 1) [7]: 0.15 fold

B3: M103205H795-MY532/M103202L889-SK1 (antibody, human IgG1, kappa, name in EU numbering)
heavy: B2 heavy with L236W, L297Q
light: B1 light
notes: copies: 2 + 2
KD fold (SG1 = 1) [6]: 5.8 fold | KD fold (SG1 = 1) [7]: 0.48 fold

B4: M103205H795-MY537/M103202L889-SK1 (antibody, human IgG1, kappa, name in EU numbering)
heavy: B2 heavy with A233G, L236W
light: B1 light
notes: copies: 2 + 2
KD fold (SG1 = 1) [5]: 0.24 fold | KD fold (SG1 = 1) [8]: 5.6 fold

B5: M103205H795-MY514 / M103202L889-SK1 (antibody)
heavy: B2 heavy with L297Q, S300L
light: B1 light
notes: 'S258L' copied as printed, probably S298L
KD fold (SG1 = 1) [9]: 2.6 fold | KD fold (SG1 = 1) [10]: 6.9 fold | KD fold (SG1 = 1) [11]: 0.09 fold | KD fold (SG1 = 1) [12]: 0.05 fold

B6: M103205H795-MY533/M103202L889-SK1 (antibody, human IgG1, kappa, name in EU numbering)
heavy: B2 heavy with L236W
light: B1 light
notes: copies: 2 + 2
KD fold (SG1 = 1) [5]: 0.33 fold | KD fold (SG1 = 1) [8]: 7.7 fold | KD fold (SG1 = 1) [13]: 4.8 fold

B7: MS1032LO06-PK57 (antibody, human IgG1, kappa)
heavy: B2 heavy with T238N, V241S, L297Q, Q313R, N386R, D415R
light: B1 light
notes: MY201 with Q311R/N384R/D413R; also called MS103205H795-PK57; M103205H795-MY57; copies: 2 + 2
Kd [1]: 4.3 µM | Kd [2]: 22 µM | KD fold (SG1 = 1) [14]: 2 fold | KD fold (SG1 = 1) [15]: 0.06 fold | KD fold (SG1 = 1) [16]: 2.3 fold | KD fold (SG1 = 1) [17]: 0.07 fold

B8: M103205H795-MY531/M103202L889-SK1 (antibody, human IgG1, kappa, name in EU numbering)
heavy: B2 heavy with L236W, V241S, L297Q, K328T
light: B1 light
notes: copies: 2 + 2
KD fold (SG1 = 1) [7]: 0.28 fold | KD fold (SG1 = 1) [13]: 3.1 fold
